B1: VHH S-20a (#2352, SEQ ID NO:11) (VHH)
VHH: DVQLQASGGGLVQAGDSLRLSCSASGLTFSSYAMGWFRQAPGKEREFVAAISWANGGSTVYADPVKGRFTISRDNAKNTVYLQMNSLKPEDTAVYSCAAADQRVGYIEYYSGSSGKEYDYWGQGTQVTVSS
B2: VHH L-14 (#2622, SEQ ID NO:2) (VHH)
VHH: DVQLQASGGGLVPAGGSLRLSCAASGHSFSSLDMAWFRQAPGREREFVAQISWSGSHTYYQDAVKGRFTISRDSAKNTGYLQMTNLKPEDTAVYYCAATYRPNTFTPAEYDYWGQGTQVTVSA
B3: VHH L+18a (#2173, SEQ ID NO:5) (VHH)
VHH: DVQLQASGGGLVQAGGSMRLSCAASGFTFDEFAIGWFRQAPGKEREAVSCIRSSDGSTWYADSVKGRFTISSDNAKNTVTLRMNSLKPEDTADYTCAALGSGYGCSLFTTTVGMDYWGKGTLVTVSS
B4: VHH L-15a (#2169, SEQ ID NO:3) (VHH)
VHH: DVQLQESGGGLVQAGGSLRLSCAASRSLRSIAVMGWFRQAPGKQREYVARITSGGYTDYADSVKGRFTIFDDSANNTVYLQMTSLKPEDTAVYHCAAGGFTEAYSGTYYPDSWGQGTQVTVSS

Target: T1, ToxA-Holotoxin of Clostridium difficile (Clostridium difficile, UniProt P16154 1-2710)
T1 construct: also called Toxin A
Assay: ELISA, monovalent VHH on coated antigen, anti-myc detection

T1 sequence (P16154 whole entry): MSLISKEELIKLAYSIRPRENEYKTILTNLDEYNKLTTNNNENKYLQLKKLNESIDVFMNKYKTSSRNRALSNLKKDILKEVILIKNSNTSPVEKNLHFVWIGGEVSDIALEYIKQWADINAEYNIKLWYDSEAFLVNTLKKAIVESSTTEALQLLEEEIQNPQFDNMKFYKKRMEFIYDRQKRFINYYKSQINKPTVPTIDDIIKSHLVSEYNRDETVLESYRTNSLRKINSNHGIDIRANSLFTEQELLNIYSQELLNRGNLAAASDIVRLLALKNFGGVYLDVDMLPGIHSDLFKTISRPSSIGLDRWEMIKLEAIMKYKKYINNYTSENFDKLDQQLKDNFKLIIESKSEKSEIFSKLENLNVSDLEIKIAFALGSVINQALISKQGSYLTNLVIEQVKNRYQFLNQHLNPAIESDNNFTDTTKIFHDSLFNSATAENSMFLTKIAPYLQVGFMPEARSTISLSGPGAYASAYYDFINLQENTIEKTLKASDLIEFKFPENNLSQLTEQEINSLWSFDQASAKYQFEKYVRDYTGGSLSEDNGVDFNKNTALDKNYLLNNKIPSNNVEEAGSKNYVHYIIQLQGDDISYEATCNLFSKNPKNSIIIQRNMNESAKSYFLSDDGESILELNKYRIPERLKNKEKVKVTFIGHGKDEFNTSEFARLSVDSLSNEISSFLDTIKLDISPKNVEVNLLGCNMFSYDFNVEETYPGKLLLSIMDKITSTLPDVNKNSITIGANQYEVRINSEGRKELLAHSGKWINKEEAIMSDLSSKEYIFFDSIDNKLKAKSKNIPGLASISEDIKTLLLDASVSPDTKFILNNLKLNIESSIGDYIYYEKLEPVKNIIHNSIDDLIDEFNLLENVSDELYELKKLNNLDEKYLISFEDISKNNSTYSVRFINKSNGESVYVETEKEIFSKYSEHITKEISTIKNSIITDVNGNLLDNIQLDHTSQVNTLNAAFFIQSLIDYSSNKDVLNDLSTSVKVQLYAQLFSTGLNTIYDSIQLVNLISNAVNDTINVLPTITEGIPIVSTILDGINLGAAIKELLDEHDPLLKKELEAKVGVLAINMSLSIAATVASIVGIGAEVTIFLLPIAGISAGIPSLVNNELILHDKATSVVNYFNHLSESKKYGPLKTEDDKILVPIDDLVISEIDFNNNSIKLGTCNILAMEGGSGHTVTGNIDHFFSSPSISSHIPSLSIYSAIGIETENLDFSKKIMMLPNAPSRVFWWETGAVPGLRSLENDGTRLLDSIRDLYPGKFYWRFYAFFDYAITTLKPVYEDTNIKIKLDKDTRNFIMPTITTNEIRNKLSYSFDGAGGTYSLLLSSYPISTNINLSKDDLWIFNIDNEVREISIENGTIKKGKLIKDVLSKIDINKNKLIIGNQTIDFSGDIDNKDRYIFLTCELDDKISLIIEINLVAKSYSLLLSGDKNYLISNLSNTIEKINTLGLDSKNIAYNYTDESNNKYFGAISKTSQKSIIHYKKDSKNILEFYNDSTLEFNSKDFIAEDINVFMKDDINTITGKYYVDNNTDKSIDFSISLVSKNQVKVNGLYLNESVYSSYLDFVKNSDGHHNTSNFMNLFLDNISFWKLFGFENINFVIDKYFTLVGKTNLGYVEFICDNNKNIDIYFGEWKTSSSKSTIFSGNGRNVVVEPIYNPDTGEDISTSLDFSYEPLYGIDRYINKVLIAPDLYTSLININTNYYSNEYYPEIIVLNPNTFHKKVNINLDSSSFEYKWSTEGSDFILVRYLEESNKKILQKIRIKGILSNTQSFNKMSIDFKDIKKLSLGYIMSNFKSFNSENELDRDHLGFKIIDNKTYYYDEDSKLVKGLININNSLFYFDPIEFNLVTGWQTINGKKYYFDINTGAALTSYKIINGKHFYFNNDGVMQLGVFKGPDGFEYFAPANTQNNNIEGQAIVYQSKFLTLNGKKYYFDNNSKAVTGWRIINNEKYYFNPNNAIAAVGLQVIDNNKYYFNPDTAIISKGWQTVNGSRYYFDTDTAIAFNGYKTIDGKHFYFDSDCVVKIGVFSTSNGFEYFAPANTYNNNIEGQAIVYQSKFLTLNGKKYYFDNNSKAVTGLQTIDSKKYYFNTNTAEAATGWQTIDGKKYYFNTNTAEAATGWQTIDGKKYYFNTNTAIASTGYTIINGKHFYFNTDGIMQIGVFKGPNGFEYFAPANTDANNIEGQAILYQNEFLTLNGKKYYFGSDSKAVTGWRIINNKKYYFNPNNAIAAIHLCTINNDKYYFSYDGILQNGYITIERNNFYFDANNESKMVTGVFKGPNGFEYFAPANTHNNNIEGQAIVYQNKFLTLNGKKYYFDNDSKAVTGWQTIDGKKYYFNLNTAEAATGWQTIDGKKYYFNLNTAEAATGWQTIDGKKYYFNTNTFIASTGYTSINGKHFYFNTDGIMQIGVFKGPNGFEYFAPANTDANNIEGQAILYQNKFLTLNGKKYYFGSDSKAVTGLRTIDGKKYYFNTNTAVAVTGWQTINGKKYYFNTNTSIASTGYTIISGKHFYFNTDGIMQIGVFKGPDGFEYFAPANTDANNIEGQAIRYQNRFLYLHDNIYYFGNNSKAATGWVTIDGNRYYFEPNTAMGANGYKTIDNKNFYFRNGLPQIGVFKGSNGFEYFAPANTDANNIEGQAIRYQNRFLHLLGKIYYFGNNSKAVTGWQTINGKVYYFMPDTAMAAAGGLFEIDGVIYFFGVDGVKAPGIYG

Row | Binder | binding result
1 | B1 | no binding (tested: 8-1000 ng VHH)
2 | B2 | no binding (tested: 8-1000 ng VHH)
3 | B3 | no binding (tested: 8-1000 ng VHH)
4 | B4 | no binding (tested: 8-1000 ng VHH)
